Results published in the supplement of paper PMC11136658.

System: peptide library, one residue held at a place counted from the Y acceptor
Assay: relative phosphorylation of the sub-library (ratio to the mean residue at this position); higher = residue favoured
Summary of the method: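 Purified recombinant kinases were incubated for 90 min in 384-well plates with biotinylated Tyr-centred peptide library mixtures, each fixing one residue at one position from −5 to +5, plus 50 μM ATP with γ-32P-ATP. Peptides were captured on streptavidin membranes, rinsed and quantified by phosphorimaging and ImageQuant. Intensities were normalized per position by the sum of the 18 (or 16, Ser/Thr-free library) randomized residues and multiplied by that number. Values give phosphorylation relative to the mean randomized residue.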

LIMK1, construct: aa285-end, human, sequence (P53667 285-647, looked up): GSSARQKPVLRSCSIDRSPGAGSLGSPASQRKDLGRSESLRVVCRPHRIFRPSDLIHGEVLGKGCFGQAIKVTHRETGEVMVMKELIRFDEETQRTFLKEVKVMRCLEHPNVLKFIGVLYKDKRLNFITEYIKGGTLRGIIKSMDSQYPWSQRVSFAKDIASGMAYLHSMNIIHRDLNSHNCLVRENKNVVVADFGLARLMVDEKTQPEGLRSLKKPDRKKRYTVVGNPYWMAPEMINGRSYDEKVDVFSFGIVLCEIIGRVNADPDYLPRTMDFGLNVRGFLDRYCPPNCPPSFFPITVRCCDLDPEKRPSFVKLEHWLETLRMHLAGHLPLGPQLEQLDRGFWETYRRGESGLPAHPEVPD
LTK, construct: aa450-end, human, sequence (P29376 450-864, looked up): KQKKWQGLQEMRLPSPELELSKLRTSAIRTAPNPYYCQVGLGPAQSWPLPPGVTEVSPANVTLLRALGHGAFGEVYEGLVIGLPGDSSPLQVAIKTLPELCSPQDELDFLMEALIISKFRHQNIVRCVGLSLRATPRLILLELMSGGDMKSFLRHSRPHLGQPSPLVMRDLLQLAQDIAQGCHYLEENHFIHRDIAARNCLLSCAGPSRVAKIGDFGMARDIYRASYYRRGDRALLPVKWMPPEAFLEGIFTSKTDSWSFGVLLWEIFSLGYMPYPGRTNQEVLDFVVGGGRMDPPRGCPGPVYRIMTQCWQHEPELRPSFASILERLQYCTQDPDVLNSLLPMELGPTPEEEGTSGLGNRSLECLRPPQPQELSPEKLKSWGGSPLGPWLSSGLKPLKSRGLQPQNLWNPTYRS
LCK, construct: Full length, human, sequence (P06239 whole entry, looked up): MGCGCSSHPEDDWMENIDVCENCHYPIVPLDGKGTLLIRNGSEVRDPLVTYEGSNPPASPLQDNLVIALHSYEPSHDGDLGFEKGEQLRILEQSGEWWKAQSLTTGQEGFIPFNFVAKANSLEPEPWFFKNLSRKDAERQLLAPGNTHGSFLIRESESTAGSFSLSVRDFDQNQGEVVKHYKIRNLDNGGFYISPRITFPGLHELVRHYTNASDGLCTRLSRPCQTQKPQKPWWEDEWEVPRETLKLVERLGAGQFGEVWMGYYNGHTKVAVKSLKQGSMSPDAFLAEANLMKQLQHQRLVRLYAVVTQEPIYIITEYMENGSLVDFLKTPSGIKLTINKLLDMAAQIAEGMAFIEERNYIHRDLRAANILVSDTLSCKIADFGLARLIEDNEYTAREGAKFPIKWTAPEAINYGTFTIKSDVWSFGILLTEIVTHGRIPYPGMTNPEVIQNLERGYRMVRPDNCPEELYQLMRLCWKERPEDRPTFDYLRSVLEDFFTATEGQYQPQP
LYN, construct: Full length, human, sequence (P07948 whole entry, looked up): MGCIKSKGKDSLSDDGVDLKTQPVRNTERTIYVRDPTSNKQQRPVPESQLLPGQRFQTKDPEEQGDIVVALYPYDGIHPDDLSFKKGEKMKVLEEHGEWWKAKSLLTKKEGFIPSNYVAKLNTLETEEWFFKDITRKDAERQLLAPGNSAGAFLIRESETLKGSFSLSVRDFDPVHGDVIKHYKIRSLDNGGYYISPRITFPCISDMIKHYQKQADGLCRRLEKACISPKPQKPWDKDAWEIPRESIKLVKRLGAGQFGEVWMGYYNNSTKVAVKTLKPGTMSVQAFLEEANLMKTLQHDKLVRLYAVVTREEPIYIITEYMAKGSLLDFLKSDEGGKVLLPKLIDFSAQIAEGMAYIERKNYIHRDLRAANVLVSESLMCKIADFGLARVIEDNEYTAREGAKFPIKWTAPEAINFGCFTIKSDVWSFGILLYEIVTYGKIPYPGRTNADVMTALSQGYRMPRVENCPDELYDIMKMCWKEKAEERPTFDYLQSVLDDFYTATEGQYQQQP

LCK, construct: Full length, human (from UniProt P06239)
relative phosphorylation
Settings	at +1	at +2	at +3	at +4	at +5	at -1	at -2	at -3	at -4	at -5
A fixed	1.69	1.08	0.69	0.928	1.14	0.73	1.02	0.875	1.08	1.06
D fixed	1.03	0.616	0.245	0.484	0.691	0.877	1.4	1.77	1.4	1.28
E fixed	1.58	1.07	0.211	0.557	0.532	1.22	1.68	2.02	1.63	1.13
F fixed	0.615	0.776	1.65	0.931	1.28	1.06	0.572	0.895	0.822	0.96
G fixed	2.95	0.934	0.904	1.18	1.14	0.416	1.35	1.1	1.25	1.17
H fixed	0.786	0.711	1.06	1.02	0.844	0.757	0.99	1.01	0.975	0.962
I fixed	0.738	0.932	1.92	0.85	0.639	2.81	0.663	0.549	0.792	0.836
K fixed	0.271	0.936	0.752	1.66	1.07	0.308	0.641	0.562	0.665	0.852
L fixed	0.686	0.754	1.67	0.887	0.942	1.93	0.796	0.731	0.921	0.866
M fixed	1.37	0.795	0.932	1.03	0.91	0.894	0.726	0.73	0.792	0.878
N fixed	0.54	0.934	0.429	0.801	0.92	0.431	1.25	1.42	1.11	1.24
P fixed	0.225	1.33	0.84	1.07	1.31	0.833	1.32	1.01	1.2	1.23
Q fixed	0.979	0.954	0.45	1	0.937	0.538	1.2	1.01	1.19	1.15
R fixed	0.438	1.2	1.55	1.69	1.34	0.238	0.696	0.637	0.82	0.98
S fixed	1.11	1.31	0.651	0.911	1.28	0.405	1.22	0.982	0.885	0.897
T fixed	0.821	1.36	0.697	0.849	0.968	1.32	0.982	0.892	0.735	0.841
V fixed	0.868	1.2	1.33	0.846	0.89	2.65	0.749	0.693	0.749	0.703
W fixed	1.3	1.11	2.02	1.3	1.16	0.584	0.748	1.11	0.989	0.971
pThr fixed	0.786	1.27	0.195	0.27	0.448	3.03	1.47	1.18	1.13	1.17
pTyr fixed	1.22	1.24	0.303	0.289	0.434	1.21	1.16	1.59	1.64	0.861

LIMK1, construct: aa285-end, human (from UniProt P53667)
relative phosphorylation
Settings	at +1	at +2	at +3	at +4	at +5	at -1	at -2	at -3	at -4	at -5
A fixed	0.862	0.869	0.944	1.08	0.821	0.957	0.937	0.905	1.05	0.934
D fixed	0.776	0.662	0.6	0.613	0.56	0.811	0.735	0.778	0.812	0.737
E fixed	0.728	0.669	0.66	0.544	0.532	0.672	0.689	0.68	0.763	0.813
F fixed	0.879	1.2	1.21	1.23	1.18	0.849	1.08	1.21	1.02	1.1
G fixed	1.22	0.739	0.954	0.989	0.991	1.31	1.02	1.04	1.08	1.02
H fixed	1.06	1.07	1.11	1.1	1.06	1.06	1.02	0.955	0.953	1.09
I fixed	0.769	0.852	0.813	0.902	0.748	0.753	0.853	0.667	0.769	0.946
K fixed	1.35	1.49	1.4	1.37	1.46	1.28	1.33	1.16	1.3	1.14
L fixed	0.738	0.856	0.829	1	0.825	0.782	0.822	0.865	0.833	0.876
M fixed	0.802	0.926	0.996	0.973	0.836	0.793	0.833	0.801	0.837	0.843
N fixed	1.09	0.92	0.945	0.797	0.838	1.01	1.26	1.29	0.885	0.902
P fixed	1.11	0.849	0.97	0.87	0.89	1.12	1.09	1.02	1.06	0.935
Q fixed	0.961	0.921	0.865	0.74	0.849	0.888	0.846	1.13	1	0.858
R fixed	1.6	1.63	1.39	1.24	1.43	1.53	1.31	1.42	1.41	1.34
V fixed	0.713	0.979	0.782	0.907	0.754	0.81	0.86	0.819	0.807	0.837
W fixed	1.34	1.37	1.54	1.64	2.22	1.38	1.31	1.26	1.42	1.62
pThr fixed	0.753	0.513	0.519	0.596	0.409	0.704	0.664	0.635	0.96	0.703
pTyr fixed	0.761	0.655	0.689	0.61	0.518	1.61	0.887	1.34	0.667	0.744

LTK, construct: aa450-end, human (from UniProt P29376)
relative phosphorylation
Settings	at +1	at +2	at +3	at +4	at +5	at -1	at -2	at -3	at -4	at -5
A fixed	2.49	0.74	0.654	0.78	0.895	0.879	1.07	0.891	1.26	1.05
D fixed	0.526	0.697	0.327	0.862	0.716	1.28	0.86	1.09	0.982	1.02
E fixed	1.34	0.934	0.278	0.952	0.642	0.877	0.963	1.49	1.21	0.905
F fixed	0.908	1.31	2.08	1.11	1.37	0.992	0.711	1.03	1.05	1.01
G fixed	0.74	0.404	0.61	0.982	1.12	0.345	1.17	0.983	1.19	1.19
H fixed	0.848	0.806	0.808	1.11	0.914	1.12	1.08	0.947	0.883	0.961
I fixed	1.23	1.1	2.95	0.875	1	2.47	1.01	0.705	0.762	0.839
K fixed	0.402	0.708	0.361	1.1	0.949	0.377	1.09	1.09	1.05	1.23
L fixed	1.07	1.41	1.38	0.85	1.04	2.06	0.934	0.916	1.01	0.999
M fixed	1.82	1.19	1.82	1.07	0.968	0.982	0.882	0.886	0.878	0.844
N fixed	0.476	0.908	0.445	0.822	0.855	1.27	0.986	1.18	0.858	1.17
P fixed	0.18	0.683	0.671	1.02	1.65	0.835	1.04	0.968	1.2	1.14
Q fixed	1.21	0.834	0.468	1.18	0.763	0.576	1.07	0.923	1.1	0.987
R fixed	0.564	1.21	0.453	1.28	1.19	0.372	1.35	1.29	1.51	1.32
S fixed	1.02	0.654	0.547	0.916	0.916	0.477	1.07	1	0.679	0.831
T fixed	0.833	0.609	0.786	0.851	1.07	0.866	1.09	0.91	0.602	0.703
V fixed	1.27	1.1	2.09	0.854	0.806	1.68	0.894	0.757	0.735	0.815
W fixed	1.07	2.71	1.27	1.37	1.14	0.536	0.731	0.943	1.04	0.993
pThr fixed	0.903	0.538	0.284	0.676	0.557	0.691	0.702	0.79	0.885	0.891
pTyr fixed	1.46	2.37	0.533	1.29	0.546	4.33	1.16	1.12	1.11	1.06

LYN, construct: Full length, human (from UniProt P07948)
relative phosphorylation
Settings	at +1	at +2	at +3	at +4	at +5	at -1	at -2	at -3	at -4	at -5
A fixed	1.69	0.956	0.493	0.796	0.932	0.577	1.02	0.769	1.09	1.05
D fixed	0.936	0.672	0.237	0.582	0.535	0.838	1.44	1.77	1.3	1.27
E fixed	1.64	1.58	0.258	0.623	0.514	1.1	1.63	2.4	1.61	1.09
F fixed	0.757	1.12	3.21	1.07	1.48	1.27	0.808	1.09	1.44	1.06
G fixed	2.35	0.704	0.661	0.923	1	0.445	1.2	0.939	1.14	1.04
H fixed	0.807	0.613	0.68	1.22	0.988	0.505	0.773	0.703	0.641	0.871
I fixed	1.15	1.13	2.63	0.899	0.956	3.44	1.05	0.802	0.922	1.02
K fixed	0.22	0.682	0.443	1.25	1.21	0.21	0.489	0.427	0.582	0.805
L fixed	0.822	0.804	1.47	0.911	1.04	2.08	0.993	0.835	1.24	1.03
M fixed	1.04	0.935	0.896	1.09	0.848	0.982	0.635	0.992	0.992	1.07
N fixed	0.628	0.943	0.347	0.803	0.66	0.381	1.14	1.09	0.82	1.09
P fixed	0.226	0.911	0.638	1.06	1.28	0.791	1.14	1.24	0.991	1.03
Q fixed	1.1	0.963	0.352	1.14	0.778	0.463	1.03	0.917	1.19	1.09
R fixed	0.31	0.92	0.974	1.38	1.32	0.2	0.524	0.45	0.6	0.762
S fixed	1.05	1.31	0.507	0.974	1.05	0.413	1.16	0.905	0.721	0.833
T fixed	0.795	1.33	0.59	0.851	1.01	1.22	0.964	0.823	0.669	0.765
V fixed	1.3	1.2	1.4	0.824	0.893	2.27	1.02	0.696	0.803	0.885
W fixed	1.18	1.22	2.21	1.61	1.5	0.811	0.977	1.15	1.25	1.23
pThr fixed	0.927	1.68	0.243	0.385	0.435	2.22	1.34	1.24	1.14	1.11
pTyr fixed	1.36	1.98	0.397	0.897	0.487	1.35	1.2	1.49	1.45	1.21
